In patent US20240132589A1:

How the values were obtained:
[1] = target: Human LILRB2 on stably transduced HEK293T cells (human) (UniProt Q8N423); experiment: flow cytometry competition on HEK293T-LILRB2 cells; blocking mAb 1 µg/mL; competitor: biotinylated B2Comp2
[2] = target: Human LILRB2 on stably transduced HEK293T cells (human) (UniProt Q8N423); experiment: flow cytometry competition on HEK293T-LILRB2 cells; blocking mAb 10 µg/mL; competitor: biotinylated B2Comp1
[3] = target: Human LILRB2 on stably transduced HEK293T cells (human) (UniProt Q8N423); experiment: flow cytometry competition on HEK293T-LILRB2 cells; blocking mAb 1 µg/mL; competitor: biotinylated B2Comp1
[4] = target: Human LILRB2 on stably transduced HEK293T cells (human) (UniProt Q8N423); experiment: flow cytometry competition on HEK293T-LILRB2 cells; blocking mAb 10 µg/mL; competitor: biotinylated B2Comp2
[5] = target: Human LILRB2 on stably transduced HEK293T cells (human) (UniProt Q8N423); experiment: flow cytometry competition on HEK293T-LILRB2 cells; blocking mAb 0.1 µg/mL; competitor: biotinylated B2Comp1
[6] = target: Human LILRB2 on stably transduced HEK293T cells (human) (UniProt Q8N423); experiment: flow cytometry competition on HEK293T-LILRB2 cells; blocking mAb 0.1 µg/mL; competitor: biotinylated B2Comp2

Chain of Human LILRB2 on stably transduced HEK293T cells (human) (Q8N423 other isoform, or with tags, fused parts or gaps limits assumed): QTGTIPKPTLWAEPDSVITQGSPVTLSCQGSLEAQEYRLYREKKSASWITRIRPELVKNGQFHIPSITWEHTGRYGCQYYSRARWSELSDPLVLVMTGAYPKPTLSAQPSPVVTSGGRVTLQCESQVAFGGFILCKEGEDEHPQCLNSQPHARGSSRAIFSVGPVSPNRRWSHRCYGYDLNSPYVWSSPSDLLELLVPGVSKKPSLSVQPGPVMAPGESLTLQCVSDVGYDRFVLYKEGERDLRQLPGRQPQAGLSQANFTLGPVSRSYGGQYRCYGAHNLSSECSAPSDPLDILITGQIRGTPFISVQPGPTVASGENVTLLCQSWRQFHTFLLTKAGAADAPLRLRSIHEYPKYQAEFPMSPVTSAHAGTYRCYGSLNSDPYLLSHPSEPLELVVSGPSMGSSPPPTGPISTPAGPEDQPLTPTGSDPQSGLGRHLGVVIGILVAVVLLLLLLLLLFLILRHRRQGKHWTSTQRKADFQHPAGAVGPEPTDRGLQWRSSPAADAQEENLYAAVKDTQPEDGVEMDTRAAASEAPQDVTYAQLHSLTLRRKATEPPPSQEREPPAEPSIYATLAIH

hIgG4 isotype control (antibody)
0%: % Blocking of B2Comp2 Binding [1] | % Blocking of B2Comp1 Binding [2] | % Blocking of B2Comp1 Binding [3] | % Blocking of B2Comp2 Binding [4] | % Blocking of B2Comp1 Binding [5] | % Blocking of B2Comp2 Binding [6]
